T1: monkey Axl receptor on COS7 cells (African green monkey, UniProt A0A0D9S0W1 26-894)
T1 construct: also called monkey cellular form of the Axl receptor
T1 sequence: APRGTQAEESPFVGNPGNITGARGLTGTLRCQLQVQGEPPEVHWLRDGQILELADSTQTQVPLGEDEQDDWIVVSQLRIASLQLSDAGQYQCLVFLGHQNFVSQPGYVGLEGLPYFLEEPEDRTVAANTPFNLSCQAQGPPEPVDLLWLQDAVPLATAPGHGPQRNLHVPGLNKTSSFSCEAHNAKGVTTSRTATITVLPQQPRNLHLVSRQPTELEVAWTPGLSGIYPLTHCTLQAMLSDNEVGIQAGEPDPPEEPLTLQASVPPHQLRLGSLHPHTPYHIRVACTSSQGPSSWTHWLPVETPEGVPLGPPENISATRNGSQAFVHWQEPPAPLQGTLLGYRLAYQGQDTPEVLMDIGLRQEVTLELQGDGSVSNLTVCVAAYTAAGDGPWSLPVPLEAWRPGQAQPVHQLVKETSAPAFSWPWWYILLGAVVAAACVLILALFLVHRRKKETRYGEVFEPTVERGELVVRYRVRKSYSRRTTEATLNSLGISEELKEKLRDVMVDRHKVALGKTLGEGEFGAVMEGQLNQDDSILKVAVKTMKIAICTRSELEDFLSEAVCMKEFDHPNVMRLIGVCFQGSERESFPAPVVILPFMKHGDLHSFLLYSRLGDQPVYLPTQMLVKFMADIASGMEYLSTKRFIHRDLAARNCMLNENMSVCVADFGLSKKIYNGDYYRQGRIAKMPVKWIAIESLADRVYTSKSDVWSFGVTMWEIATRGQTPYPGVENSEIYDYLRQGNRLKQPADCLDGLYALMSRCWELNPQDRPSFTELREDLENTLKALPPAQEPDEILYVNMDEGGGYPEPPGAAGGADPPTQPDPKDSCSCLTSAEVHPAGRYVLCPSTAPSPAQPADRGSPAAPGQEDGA

T2: recombinant human Mer-Fc protein (R and D Systems, cat N° 891-MR) (human, UniProt Q12866 26-499, limits assumed)
T2 construct: Bought construct; also called rhMer-Fc; rh-Mer-Fc; not shown: Fc portion of the bought fusion
T2 sequence (looked up): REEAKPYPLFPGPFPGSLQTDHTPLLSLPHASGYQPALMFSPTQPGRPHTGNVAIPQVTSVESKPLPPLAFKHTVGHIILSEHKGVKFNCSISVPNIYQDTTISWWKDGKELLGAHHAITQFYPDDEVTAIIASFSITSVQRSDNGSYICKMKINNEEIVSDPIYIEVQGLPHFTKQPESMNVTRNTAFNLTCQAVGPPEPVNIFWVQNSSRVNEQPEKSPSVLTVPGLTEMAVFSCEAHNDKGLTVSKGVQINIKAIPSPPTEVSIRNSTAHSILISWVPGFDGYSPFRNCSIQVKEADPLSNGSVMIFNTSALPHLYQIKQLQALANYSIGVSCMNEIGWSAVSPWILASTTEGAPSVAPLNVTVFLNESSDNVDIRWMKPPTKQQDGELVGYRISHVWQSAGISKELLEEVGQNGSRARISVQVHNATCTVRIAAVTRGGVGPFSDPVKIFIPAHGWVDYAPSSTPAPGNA

T3: recombinant human Dtk-Fc protein (R and D Systems, cat N° 859-DK) (human, UniProt Q06418 41-428)
T3 construct: Bought construct; also called rhDtk-Fc; rhDtk; not shown: Fc portion of the bought fusion
T3 sequence (looked up): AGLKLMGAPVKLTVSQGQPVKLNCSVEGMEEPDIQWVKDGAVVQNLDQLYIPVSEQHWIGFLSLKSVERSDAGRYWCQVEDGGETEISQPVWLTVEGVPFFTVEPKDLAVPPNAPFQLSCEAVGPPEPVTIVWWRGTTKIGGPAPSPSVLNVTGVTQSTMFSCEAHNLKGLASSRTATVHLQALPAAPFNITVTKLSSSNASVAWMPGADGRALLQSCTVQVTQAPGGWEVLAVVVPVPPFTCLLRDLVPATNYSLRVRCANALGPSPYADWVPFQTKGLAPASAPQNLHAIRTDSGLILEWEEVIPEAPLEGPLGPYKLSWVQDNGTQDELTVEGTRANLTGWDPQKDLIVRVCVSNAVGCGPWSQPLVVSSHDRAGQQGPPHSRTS


How the values were obtained:
[1] = target: T1, monkey Axl receptor on COS7 cells; experiment: flow cytometry titration on COS7 cells
Procedure: For 110D7, respectively 1003A2 and 1024G11, cellular binding purpose, 2·10⁵ cells were incubated with an antibody concentration range prepared by ½ serial dilution (12 points) of a 10 μg/ml (6.66 10⁻⁸ M) antibody solution of 110D7, respectively 1003A2 and 1024G11, or m9G4 (mIgG1 isotype control Mab) for 20 min at 4° C. After 3 washes in phosphate-buffered saline (PBS) supplemented with 1% BSA and 0.01% NaN₃, cells were incubated with secondary antibody goat anti-mouse Alexa 488 (dilution 1/500) for 20 minutes at 4° C. After 3 additional washes in PBS supplemented with 1% BSA and 0.1% NaN₃, cells were analyzed by FACS (Facscalibur, Becton-Dickinson). At least 5000 cells were assessed to calculate the mean value of fluorescence intensity. Data are analyzed using Prism software.

[2] = target: T2, recombinant human Mer-Fc protein (R and …); experiment: ELISA on coated protein
Procedure: (§1) Briefly, the recombinant human Axl-Fc (R and D systems, cat N° 154AL/CF), rhDtk (R and D Systems, cat N° 859-DK) or rh-Mer-Fc (R and D Systems, cat N° 891-MR) proteins were coated overnight at 4° C. to Immulon II 96-well plates and, after a 1 h blocking step with a 0.5% gelatine solution, 110D7, 1003A2, 1024G11 purified antibodies were added, respectively, for an additional 1 h at 37° C. at starting concentration of 5 μg/ml (3.33 10⁻⁸M). Then ½ serial dilutions were done over 12 columns. Then plates were washed and a goat anti-mouse (Jackson) specific IgG-HRP was added for 1 h at 37° C. Reaction development was performed using the TMB substrate solution. The commercial anti-Axl Mab 154 antibody is also used in parallel (data not shown). Coating controls are performed in presence of a goat anti-human IgG Fc polyclonal serum labelled with HRP (Jackson, ref 109-035-098) and/or in presence of a HRP-coupled anti-Histidine antibody (R and D Systems, ref: MAB050H). No non specific binding is observed in absence of primary antibody (diluant). Results for the 110D7 are represented in FIGS. 2A, 2B and 2C, respectively. Results for the 1003A2 are represented in FIGS. 2D, 2E and 2F, respectively. Results for the 1024G11 are represented in FIGS. 2G, 2H and 2I, respectively.

[3] = target: T3, recombinant human Dtk-Fc protein (R and …); experiment: ELISA on coated protein
Procedure: as §1

Binder	antibody concentration above which the plateau is reached [1] [pM]	binding result [2]	binding result [3]
110D7 anti-Axl monoclonal antibody (antibody, V domains shown, Murine monoclonal antibody purified from a hybridoma; a mIgG1 isotype control (9G4) is used beside it; also called m110D7; monoclonal antibody 110D7 derived from the hybridoma I-3959) VH: EVKLVESGGGLVQPGGSLKLSCATSGFTFSDYYMYWVRQTPEKRLEWVAYISNGGGSTYYPDTVKGRFTMSRDNAKNTLYLQMSRLKSEDTAMYYCARLSFYAMDYWGQGTSVTVSS VL: DIVMTQSHKFMSTSVGDRVSITCKASQDVTTAVAWYQQKPGQSPKLLIYWASTRHTGVPDRFTGSGSGTDYTLTISSVQAEDLALYYCQQHYRIPFTFGSGTKLEIK	> 1000	no binding	no binding
1024G11 anti-Axl monoclonal antibody (antibody, V domains shown, Murine monoclonal antibody purified from a hybridoma; a mIgG1 isotype control (9G4) is used beside it; also called monoclonal antibody 1024G11 derived from the hybridoma I-4501) VH: EVKLVESGGGLVQPGGSLNLSCAASGFTFSSYSMSWVRQTPEKRLEWVAFISNGGGRTYYPDTVKGRFTFSRDNARNTLYLQMSSLNSEDTAMYFCARGTTESYYAMDYWGQGTSVTVSS VL: DIVMTQSHKFMSTSVGDRVSITCKASQDVITAVAWYQQKPGQSPKLLIYWASTRHTGVPDRFTGSGSGTDYTLTISSVQAEDLALYFCQQHLSTPLTFGAGTKLELK	> 520	no binding	no binding
1003A2 anti-Axl monoclonal antibody (antibody, V domains shown, Murine monoclonal antibody purified from a hybridoma; a mIgG1 isotype control (9G4) is used beside it; also called monoclonal antibody 1003A2 derived from the hybridoma I-4499) VH: EVKLVESGGGLVQPGGSLKLSCAASGFTFNSYSMSWVRQTPEKRLEWVAYISNGGGRTYYPDTIKGRFTLSRDNDRNTLYLQMSSLKSEDTAMYYCARGTTESYYALDYWGQGTSVTVSS VL: DIVMTQSHKFMSTSLGDRISITCKASQDVITAVAWYQQKPGQSPKLLIYWASTRHTGVPDRFTGSGSGTDYNLTISSVQAEDLALYYCQQHFSTPLTFGAGTKLELK	> 520	no binding	no binding
